The chains are these.
B1: Taf6 (natural protein)
chain: MSTQQQSYTIWSPQDTVKDVAESLGLENINDDVLKALAMDVEYRILEIIEQAVKFKRHSKRDVLTTDDVSKALRVLNVEPLYGYYDGSEVNKAVSFSKVNTSGGQSVYYLDEEEVDFDRLINEPLPQVPRLPTFTTHWLAVEGVQPAIIQNPNLNDIRVSQPPFIRGAIVTALNDNSLQTPVTSTTASASVTDTGASQHLSNVKPGQNTEVKPLVKHVLSKELQIYFNKVISTLTAKSQADEAAQHMKQAALTSLRTDSGLHQLVPYFIQFIAEQITQNLSDLQLLTTILEMIYSLLSNTSIFLDPYIHSLMPSILTLLLAKKLGGSPKDDSPQEIHEFLERTNALRDFAASLLDYVLKKFPQAYKSLKPRVTRTLLKTFLDINRVFGTYYGCLKGVSVLEGESIRFFLGNLNNWARLVFNESGITLDNIEEHLNDDSNPTRTKFTKEETQILVDTVISALLVLKKDLPDLYEGKGEKVTDEDKEKLLERCGVTIGFHILKRDDAKELISAIFFGE
B3: Taf5 (natural protein)
chain: MSQKQSTNQNQNGTHQPQPVKNQRTNNAAGANSGQQPQQQSQGQSQQQGRSNGPFSASDLNRIVLEYLNKKGYHRTEAMLRAESGRTLTPQNKQSPANTKTGKFPEQSSIPPNPGKTAKPISNPTNLSSKRDAEGGIVSSGRLEGLNAPENYIRAYSMLKNWVDSSLEIYKPELSYIMYPIFIYLFLNLVAKNPVYARRFFDRFSPDFKDFHGSEINRLFSVNSIDHIKENEVASAFQSHKYRITMSKTTLNLLLYFLNENESIGGSLIISVINQHLDPNIVESVTAREKLADGIKVLSDSENGNGKQNLEMNSVPVKLGPFPKDEEFVKEIETELKIKDDQEKQLNQQTAGDNYSGANNRTLLQEYKAMNNEKFKDNTGDDDKDKIKDKIAKDEEKKESELKVDGEKKDSNLSSPARDILPLPPKTALDLKLEIQKVKESRDAIKLDNLQLALPSVCMYTFQNTNKDMSCLDFSDDCRIAAAGFQDSYIKIWSLDGSSLNNPNIALNNNDKDEDPTCKTLVGHSGTVYSTSFSPDNKYLLSGSEDKTVRLWSMDTHTALVSYKGHNHPVWDVSFSPLGHYFATASHDQTARLWSCDHIYPLRIFAGHLNDVDCVSFHPNGCYVFTGSSDKTCRMWDVSTGDSVRLFLGHTAPVISIAVCPDGRWLSTGSEDGIINVWDIGTGKRLKQMRGHGKNAIYSLSYSKEGNVLISGGADHTVRVWDLKKATTEPSAEPDEPFIGYLGDVTASINQDIKEYGRRRTVIPTSDLVASFYTKKTPVFKVKFSRSNLALAGGAFRP

Assay [1] concerns the target T1, Sgf73 (S. cerevisiae, UniProt P53165 1-657).
T1 sequence: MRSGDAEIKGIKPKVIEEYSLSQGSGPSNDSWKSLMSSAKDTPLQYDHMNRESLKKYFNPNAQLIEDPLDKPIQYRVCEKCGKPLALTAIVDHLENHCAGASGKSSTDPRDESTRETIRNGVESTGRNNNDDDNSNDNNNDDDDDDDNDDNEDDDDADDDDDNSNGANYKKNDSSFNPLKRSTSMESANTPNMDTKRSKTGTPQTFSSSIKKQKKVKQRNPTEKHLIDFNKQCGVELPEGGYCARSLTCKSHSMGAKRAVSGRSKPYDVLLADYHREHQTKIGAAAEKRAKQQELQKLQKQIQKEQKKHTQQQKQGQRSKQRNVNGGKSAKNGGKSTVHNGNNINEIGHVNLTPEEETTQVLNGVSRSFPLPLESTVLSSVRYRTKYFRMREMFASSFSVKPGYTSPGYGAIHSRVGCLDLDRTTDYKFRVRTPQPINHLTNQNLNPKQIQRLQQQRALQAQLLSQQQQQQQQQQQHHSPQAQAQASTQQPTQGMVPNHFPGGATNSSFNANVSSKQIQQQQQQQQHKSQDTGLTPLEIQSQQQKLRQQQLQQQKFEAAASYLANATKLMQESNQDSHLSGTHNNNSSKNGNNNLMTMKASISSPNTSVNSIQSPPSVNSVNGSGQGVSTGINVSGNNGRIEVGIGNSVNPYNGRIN
The assay can be described thus: cryo-EM structure.

Assay [2] has as its target B3. The assay can be described thus: cryo-EM structure.
The next assay addresses T2, Spt7 (S. cerevisiae, UniProt P35177 1-1332).
T2 sequence: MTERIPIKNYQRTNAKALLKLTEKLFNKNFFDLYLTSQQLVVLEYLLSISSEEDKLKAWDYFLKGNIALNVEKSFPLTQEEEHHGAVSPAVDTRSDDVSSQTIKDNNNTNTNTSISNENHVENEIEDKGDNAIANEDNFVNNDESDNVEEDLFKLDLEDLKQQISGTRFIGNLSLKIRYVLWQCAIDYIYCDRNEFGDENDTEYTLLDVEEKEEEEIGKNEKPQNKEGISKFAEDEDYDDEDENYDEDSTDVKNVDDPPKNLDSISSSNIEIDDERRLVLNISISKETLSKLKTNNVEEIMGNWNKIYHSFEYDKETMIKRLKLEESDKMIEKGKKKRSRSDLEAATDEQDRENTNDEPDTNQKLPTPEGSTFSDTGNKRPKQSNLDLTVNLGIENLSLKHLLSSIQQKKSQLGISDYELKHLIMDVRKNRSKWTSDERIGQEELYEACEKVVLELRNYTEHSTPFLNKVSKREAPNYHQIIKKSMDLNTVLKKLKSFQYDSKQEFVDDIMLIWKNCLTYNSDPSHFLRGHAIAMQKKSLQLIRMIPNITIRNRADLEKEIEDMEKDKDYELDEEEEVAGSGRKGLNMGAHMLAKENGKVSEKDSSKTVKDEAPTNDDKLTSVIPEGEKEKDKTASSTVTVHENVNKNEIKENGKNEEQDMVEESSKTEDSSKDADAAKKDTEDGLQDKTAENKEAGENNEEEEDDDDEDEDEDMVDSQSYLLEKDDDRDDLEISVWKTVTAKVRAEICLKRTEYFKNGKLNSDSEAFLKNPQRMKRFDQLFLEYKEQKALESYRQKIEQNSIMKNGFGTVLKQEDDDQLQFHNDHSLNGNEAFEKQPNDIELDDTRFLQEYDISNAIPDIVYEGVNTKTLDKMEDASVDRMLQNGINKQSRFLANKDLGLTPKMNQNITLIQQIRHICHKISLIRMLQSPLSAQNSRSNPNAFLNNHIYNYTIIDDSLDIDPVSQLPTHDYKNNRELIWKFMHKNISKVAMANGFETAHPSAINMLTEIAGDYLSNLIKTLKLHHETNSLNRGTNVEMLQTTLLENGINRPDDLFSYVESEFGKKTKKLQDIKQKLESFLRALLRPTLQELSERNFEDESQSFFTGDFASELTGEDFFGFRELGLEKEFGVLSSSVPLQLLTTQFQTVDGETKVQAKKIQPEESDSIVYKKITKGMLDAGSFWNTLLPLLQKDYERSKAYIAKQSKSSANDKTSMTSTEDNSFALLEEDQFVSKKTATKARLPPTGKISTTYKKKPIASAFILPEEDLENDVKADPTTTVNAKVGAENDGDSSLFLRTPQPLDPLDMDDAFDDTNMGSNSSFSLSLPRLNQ
The experiment in a line: cryo-EM structure.

The target of the assay “Taf6” is B1. The assay can be described thus: cryo-EM structure.
For assay [3], the target named is T1, Sgf73. The experiment in a line: affinity purification with mass spectrometry.
Assay [4] concerns the target B3. The experiment in a line: affinity purification with mass spectrometry.
For a further assay, the target named is Tra1 (S. cerevisiae, UniProt P38811 1-3744). The assay can be described thus: affinity purification with mass spectrometry.

The text below walks through data of PMC6994259 (Nature, 2020).

Tra1, sequence (P38811 whole entry): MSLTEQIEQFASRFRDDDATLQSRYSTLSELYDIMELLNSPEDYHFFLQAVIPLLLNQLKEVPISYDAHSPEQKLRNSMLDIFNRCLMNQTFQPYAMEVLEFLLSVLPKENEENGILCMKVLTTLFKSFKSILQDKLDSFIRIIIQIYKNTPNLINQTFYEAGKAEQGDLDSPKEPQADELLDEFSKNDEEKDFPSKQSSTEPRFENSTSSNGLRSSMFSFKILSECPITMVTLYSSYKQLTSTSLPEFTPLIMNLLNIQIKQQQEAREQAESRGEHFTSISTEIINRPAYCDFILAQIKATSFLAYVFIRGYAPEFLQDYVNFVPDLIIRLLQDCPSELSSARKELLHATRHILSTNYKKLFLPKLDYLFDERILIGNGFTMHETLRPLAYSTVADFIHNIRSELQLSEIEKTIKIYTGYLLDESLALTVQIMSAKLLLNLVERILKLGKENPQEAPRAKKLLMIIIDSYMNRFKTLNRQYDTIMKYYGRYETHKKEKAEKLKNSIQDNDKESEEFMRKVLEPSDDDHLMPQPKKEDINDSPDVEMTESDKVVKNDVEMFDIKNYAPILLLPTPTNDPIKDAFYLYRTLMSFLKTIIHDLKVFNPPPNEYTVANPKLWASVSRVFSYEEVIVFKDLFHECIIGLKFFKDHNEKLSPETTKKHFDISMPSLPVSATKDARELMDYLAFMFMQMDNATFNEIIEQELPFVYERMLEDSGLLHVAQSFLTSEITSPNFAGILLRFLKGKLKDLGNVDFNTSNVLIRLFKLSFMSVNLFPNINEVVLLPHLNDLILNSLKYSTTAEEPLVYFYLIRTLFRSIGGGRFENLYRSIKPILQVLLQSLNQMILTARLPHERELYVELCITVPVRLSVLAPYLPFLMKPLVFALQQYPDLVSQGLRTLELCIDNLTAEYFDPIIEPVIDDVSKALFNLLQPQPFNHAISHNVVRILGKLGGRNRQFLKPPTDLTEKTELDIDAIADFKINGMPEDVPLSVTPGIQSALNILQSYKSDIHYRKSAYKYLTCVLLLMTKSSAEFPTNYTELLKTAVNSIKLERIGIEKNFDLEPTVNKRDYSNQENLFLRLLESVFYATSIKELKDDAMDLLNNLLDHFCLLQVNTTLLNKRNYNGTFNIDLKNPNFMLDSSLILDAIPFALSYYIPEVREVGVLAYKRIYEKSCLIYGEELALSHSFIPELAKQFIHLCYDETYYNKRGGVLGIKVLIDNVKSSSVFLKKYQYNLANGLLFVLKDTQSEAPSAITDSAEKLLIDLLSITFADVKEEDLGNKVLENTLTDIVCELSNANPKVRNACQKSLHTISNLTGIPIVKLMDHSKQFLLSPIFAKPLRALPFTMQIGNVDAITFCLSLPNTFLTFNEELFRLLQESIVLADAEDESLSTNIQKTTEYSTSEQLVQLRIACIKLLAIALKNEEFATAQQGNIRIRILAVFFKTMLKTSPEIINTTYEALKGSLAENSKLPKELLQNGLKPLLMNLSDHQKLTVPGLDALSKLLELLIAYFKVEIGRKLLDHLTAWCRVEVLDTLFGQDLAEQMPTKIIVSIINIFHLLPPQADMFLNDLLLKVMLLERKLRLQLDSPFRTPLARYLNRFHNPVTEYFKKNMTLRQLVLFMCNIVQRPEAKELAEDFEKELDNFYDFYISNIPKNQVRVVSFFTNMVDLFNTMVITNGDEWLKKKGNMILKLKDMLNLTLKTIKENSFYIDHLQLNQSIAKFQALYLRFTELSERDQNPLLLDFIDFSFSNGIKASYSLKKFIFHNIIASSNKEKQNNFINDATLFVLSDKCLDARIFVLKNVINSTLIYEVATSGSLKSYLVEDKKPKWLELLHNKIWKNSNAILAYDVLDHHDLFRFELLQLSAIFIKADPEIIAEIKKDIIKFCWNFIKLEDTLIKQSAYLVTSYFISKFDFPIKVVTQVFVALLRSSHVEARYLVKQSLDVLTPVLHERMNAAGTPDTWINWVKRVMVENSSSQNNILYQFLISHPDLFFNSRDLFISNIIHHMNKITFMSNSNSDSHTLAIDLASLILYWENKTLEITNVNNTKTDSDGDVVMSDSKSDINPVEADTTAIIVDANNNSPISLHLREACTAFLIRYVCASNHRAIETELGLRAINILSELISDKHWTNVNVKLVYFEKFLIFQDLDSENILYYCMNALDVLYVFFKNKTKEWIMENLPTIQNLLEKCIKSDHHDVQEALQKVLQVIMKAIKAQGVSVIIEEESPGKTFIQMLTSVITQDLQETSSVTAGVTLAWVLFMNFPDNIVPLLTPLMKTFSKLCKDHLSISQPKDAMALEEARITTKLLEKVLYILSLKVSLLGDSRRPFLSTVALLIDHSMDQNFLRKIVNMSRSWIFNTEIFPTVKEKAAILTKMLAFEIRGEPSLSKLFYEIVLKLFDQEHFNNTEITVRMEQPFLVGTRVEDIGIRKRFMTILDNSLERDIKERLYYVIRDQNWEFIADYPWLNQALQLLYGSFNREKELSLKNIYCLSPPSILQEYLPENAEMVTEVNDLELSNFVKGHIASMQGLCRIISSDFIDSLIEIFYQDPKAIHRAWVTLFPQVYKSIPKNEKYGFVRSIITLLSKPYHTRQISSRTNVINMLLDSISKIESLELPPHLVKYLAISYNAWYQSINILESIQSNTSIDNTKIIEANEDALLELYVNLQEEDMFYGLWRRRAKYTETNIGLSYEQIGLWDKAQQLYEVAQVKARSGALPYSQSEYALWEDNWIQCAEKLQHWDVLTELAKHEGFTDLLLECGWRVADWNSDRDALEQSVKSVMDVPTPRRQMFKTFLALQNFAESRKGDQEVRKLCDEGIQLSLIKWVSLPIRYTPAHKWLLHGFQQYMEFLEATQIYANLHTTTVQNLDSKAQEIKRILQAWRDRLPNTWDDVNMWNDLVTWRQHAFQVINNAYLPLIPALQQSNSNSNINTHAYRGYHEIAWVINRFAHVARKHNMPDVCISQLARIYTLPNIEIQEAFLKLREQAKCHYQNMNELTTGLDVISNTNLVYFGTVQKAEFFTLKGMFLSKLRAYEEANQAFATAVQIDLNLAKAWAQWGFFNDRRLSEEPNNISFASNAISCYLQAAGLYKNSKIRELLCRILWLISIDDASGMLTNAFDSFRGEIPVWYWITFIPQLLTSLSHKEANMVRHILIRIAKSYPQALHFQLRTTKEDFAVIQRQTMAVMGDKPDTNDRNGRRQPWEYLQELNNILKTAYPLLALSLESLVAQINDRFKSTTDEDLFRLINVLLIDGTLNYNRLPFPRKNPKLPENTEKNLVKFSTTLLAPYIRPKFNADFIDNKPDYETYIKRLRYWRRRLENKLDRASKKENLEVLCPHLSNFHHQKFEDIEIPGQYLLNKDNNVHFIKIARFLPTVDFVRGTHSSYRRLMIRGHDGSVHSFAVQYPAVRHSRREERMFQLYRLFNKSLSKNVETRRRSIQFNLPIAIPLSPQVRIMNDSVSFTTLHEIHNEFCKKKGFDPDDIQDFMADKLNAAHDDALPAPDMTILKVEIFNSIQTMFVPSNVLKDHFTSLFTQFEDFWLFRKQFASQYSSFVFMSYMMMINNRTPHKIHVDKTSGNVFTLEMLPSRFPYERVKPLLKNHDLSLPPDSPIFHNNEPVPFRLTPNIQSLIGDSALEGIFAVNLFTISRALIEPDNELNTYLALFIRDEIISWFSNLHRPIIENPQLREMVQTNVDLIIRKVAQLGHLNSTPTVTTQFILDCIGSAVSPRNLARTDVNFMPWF

In the case of B1, the binding result in the assay with Sgf73 [1], with Taf5 [2] and with Spt7 was “binds” throughout.

B2: Taf10 (natural protein)
chain: MDFEEDYDAEFDDNQEGQLETPFPSVAGADDGDNDNDDSVAENMKKKQKREAVVDDGSENAFGIPEFTRKDKTLEEILEMMDSTPPIIPDAVIDYYLTKNGFNVADVRVKRLLALATQKFVSDIAKDAYEYSRIRSSVAVSNANNSQARARQLLQGQQQPGVQQISQQQHQQNEKTTASKVVLTVNDLSSAVAEYGLNIGRPDFYR
B2: the binding result with Taf5 [2] and in the assay with Spt7 was “binds” in each case.
Regarding B3, in the assay with Spt7, the binding result is on record as “binds”.

B4: Taf9 (natural protein)
chain: MNGGGKNVLNKNSVGSVSEVGPDSTQEETPRDVRLLHLLLASQSIHQYEDQVPLQLMDFAHRYTQGVLKDALVYNDYAGSGNSAGSGLGVEDIRLAIAARTQYQFKPTAPKELMLQLAAERNKKALPQVMGTWGVRLPPEKYCLTAKEWDLEDPKSM
Consider B4, for which the binding result in the assay with Sgf73 [1], in the assay with Taf5 [2] and with Taf6 was “binds” in each case.

B5: Spt20 (natural protein)
chain: MSANSPTGNDPHVFGIPVNATPSNMGSPGSPVNVPPPMNPAVANVNHPVMRTNSNSNANEGTRTLTREQIQQLQQRQRLLLQQRLLEQQRKQQALQNYEAQFYQMLMTLNKRPKRLYNFVEDADSILKKYEQYLHSFEFHIYENNYKICAPANSRLQQQQKQPELTSDGLILTKNNETLKEFLEYVARGRIPDAIMEVLRDCNIQFYEGNLILQVYDHTNTVDVTPKENKPNLNSSSSPSNNNSTQDNSKIQQPSEPNSGVANTGANTANKKASFKRPRVYRTLLKPNDLTTYYDMMSYADNARFSDSIYQQFESEILTLTKRNLSLSVPLNPYEHRDMLEETAFSEPHWDSEKKSFIHEHRAESTREGTKGVVGHIEERDEFPQHSSNYEQLMLIMNERTTTITNSTFAVSLTKNAMEIASSSSNGVRGASSSTSNSASNTRNNSLANGNQVALAAAAAAAAVGSTMGNDNNQFSRLKFIEQWRINKEKRKQQALSANINPTPFNARISMTAPLTPQQQLLQRQQQALEQQQNGGAMKNANKRSGNNATSNNNNNNNNLDKPKVKRPRKNAKKSESGTPAPKKKRMTKKKQSASSTPSSTTMS
For B5, the binding result with Sgf73 [3], in the assay with Taf5 [4] and with Tra1 was “binds” each time.
